The DeepSol protein solubility set

Experiment: soluble on expression in E. coli; label from the status in PepcDB or PDB records

| Sequence | soluble on expression in E. coli |
| --- | --- |
| MATFASRELTEEDDSHPGPSEKSEKDVLGIVRTGPKKLITGESSSLFKLKNELLKRKDRLNSEVHIKHTETHVSGKSNLLSTKKEEKERQARKDESRKLRIEKNERAVRREEDEARLMAAQQKLREKSELYDRMQEGNVVLANLDDTPVEFLVDFGTKKRRIEEERAWERERYREQEEAAPIGFGRAPIPEHYHHSEEQRVYGTSHMRLSLNENKRKEEIEKLLEMSKKTDMDKAKKKETEKHRDILRREKLNKLRAKHGLELLPEIVEPVAVPASQIDLNSIPLPGQKETPEERHARLMKSDREWDRGKGHYTTWIEKQRDERDDEFRPPDSYFR | soluble |
| MGSDKIHHHHHHMWHLFLECAFKIFLFEHSFKYFLNNFSKLGRLIIPSLKKTQIMRNAEFDRKAVLCAAMSVFTAKGYAKTSMQDLTKATGLHPGSIYCAFENKKGLLIAAIGQYQDERHQQFVRLFDNDAPCLSNLSNYLTEIVDECLSQDMSKACLLTKTLNEVGSQDEEIKTLITANLTAWQAALTAVFSLAQKNNEIDSQANSQELAQYLMMGIYGLRTFAHTHKDGQQLAQLAKKLLADVSR | not soluble |
| MVAVERVESLAKSGIISIPKEYIRPKEELESINDVFLEEKKEDGPQVPTIDLKNIESDDEKIRENCIEELKKASLDWGVMHLINHGIPADLMERVKKAGEEFFSLSVEEKEKYANDQATGKIQGYGSKLANNASGQLEWEDYFFHLAYPEEKRDLSIWPKTPSDYIEATSEYAKCLRLLATKVFKALSVGLGLEPDRLEKEVGGLEELLLQMKINYYPKCPQPELALGVEAHTDVSALTFILHNMVPGLQLFYEGKWVTAKCVPDSIVMHIGDTLEILSNGKYKSILHRGLVNKEKVRISWAVFCEPPKDKIVLKPLPEMVSVESPAKFPPRTFAQHIEHKLFGKEQEELVSEKND | soluble |
| MSLKRIRPLDPDVVNKIAAGEIIVAPMHALKELIENAVDAGSTSIEVLVKDGGMKLLQITDNGHGIDRDDLPILCERFTTSKLKQFEDLSSIGTYGFRGEALASISHIAHLTVTTKTAGSSCAWRAHYSDGKLVPPKPGQSAEPKATAGRGGTQITVEDLFYNVPTRRRAFRSASEEYAKILDVVGRYAVHCSGVAFSCRKHGESGAGISTPAAANTTDRIRQIHGSAVANELVEFQVEDSKLGFRSSGLVTNANYHVKRTVIMLFINHRSVESTAIKRAVEQTYSSFLPKGGHPFVYIDLEIEPHRVDVNVHPTKREVNFLNEDDIIESICSEIRSKLAQEGHHHHHH | soluble |
| LSGYAQAGFSSLWLPTASSEKENYNTFDVKRITLRANVAITDKWSVTFIPDFAKRYTNLELYTSFRTCSGFGIRLGQFKTAFSIENQLSPTTIETISCGSMATNFLAAGNGSDPLMGAQSGRDVGLEIYGDLFNDILGYRLGVLNGQGINTLDGSKHKTLEGSLTLRPIECLSFTGSFMSGKTAALNDAPIKINSKQIMAGDLYDRSRWSVGGMFRSKYLDLRSEYLEGKDDDMISKGFYVTGVGRLFKNLDIIGSYDFMDLYERQQVHNITAGLQYWFFPKCRLQAQYVLSNPKGEYNNTHALLTQVQVAF | not soluble |
| MGSSHHHHHHSSGLVPRGSHMTRSKVAIIGGGPAGSVAGLTLHKLGHDVTIYERSAFPRYRVGESLLPGTMSILNRLGLQEKIDAQNYVKKPSATFLWGQDQAPWTFSFAAPKVAPWVFDHAVQVKREEFDKLLLDEARSRGITVHEETPVTDVDLSDPDRVVLTVRRGGESVTVESDFVIDAGGSGGPISRKLGVRQYDEFYRNFAVWSYFKLKDPFEGDLKGTTYSITFEDGWVWMIPIKDDLYSVGLVVDRSKSAEVREQGADAFYSSTLAKCAKAMDILGGAEQVDEVRIVQDWSYDTEVFSADRFFLCGDAACFTDPLFSQGVHLASQSAVSAAAAIDRITRHGDEKDAVHAWYNRTYREAYEQYHQFLASFYTFASFTEPDSEFWRKRRITESDDDRLTRKKWFESLAGNGPEDPSGTVASFRDRASTMIAIGRHQRPELSDDFSEAELNPARVRWISDLTKRLNSITRFKWTGGKAVLKQHYRVEPIGFRLEQREVLANGEGLDMAQYPMDDEARQIFQDLAEEEFGYKTLVKRLGAVGRQELSTQIVVRLMEAGLLTGYDAQGEKVFVQGRLHFGGVGVEYEV | soluble |
| MGSDKIHHHHHHMLRSTISLLMNSAAQKTMTNSNFVLNAPKITLTKVEQNICNLLNDYTDLYNQKYHNKPEPLTLRITGGWVRDKLLGQGSHDLDIAINVMSGEQFATGLNEYLQQHYAKYGAKPHNIHKIDKNPEKSKHLETATTKLFGVEVDFVNLRSEKYTELSRIPKVCFGTPEEDALRRDATLNALFYNIHKGEVEDFTKRGLQDLKDGVLRTPLPAKQTFLDDPLRVLRLIRFASRFNFTIDPEVMAEMGDPQINVAFNSKISRERVGVEMEKILVGPTPLLALQLIQRAHLENVIFFWHNDSSVVKFNEENCQDMDKINHVYNDNILNSHLKSFIELYPMFLEKLPILREKIGRSPGFQQNFILSAILSPMANLQIIGNPKKKINNLVSVTESIVKEGLKLSKNDAAVIAKTVDSICSYEEILAKFADRSQLKKSEIGIFLRNFNGEWETAHFASLSDAFLKIPKLETKKIELLFQNYNEFYSYIFDNNLNNCHELKPIVDGKQMAKLLQMKPGPWLGKINNEAIRWQFDNPTGTDQELITHLKAILPKYL | not soluble |
| MNIWGPHIVQARRAVAIFCRGLLVLMPALSLLGLTAEAEPRSADDRQRIAAVTAPATGFTVAEPFEQLPGGAATVSGDLGRDAFSRPSANMSFERELDFHLGQALFDKLWVASPSSTKASDGLGPLYNARSCQACHIRDGRGQVSGGPGLVLRIGRVRGDGVLPDPLFGLQIQDSAVPGLRPEARIAVSQAETEVTLNGGEVAVLRKPRYRLDAAEGTLHAESTLSPRLAPQMIGLGLLEAIPEAEILARADPDDRDGDGISGRPNRVHDPETGQEALGRFGWKAGAASVLDQTAAAFASDIGISSPLRPAPWGDCTELQVECRAALHGDGDPRGAEIDGPALALTAFYSRNLAVPARRDVDDPDVLRGKRVFYGIGCPACHVPKHVTAQLSDQPEQSFQLIWPYTDLLLHDMGAGLADELPQGLASGREWRTAPLWGIGLTEQVSGQARFLHDGRARTLLEAVLWHGGEAAAQRDRVIALAPEDRAALIRFLESL | not soluble |
| GPLGSKDTRPQTDDVLNTKGNTFEDFYLKRELLMGIFEAGFEKPSPIQEEAIPVAITGRDILARAKNGTGKTAAFVIPTLEKVKPKLNKIQALIMVPTRELALQTSQVVRTLGKHCGISCMVTTGGTNLRDDILRLNETVHILVGTPGRVLDLASRKVADLSDCSLFIMDEADKMLSRDFKTIIEQILSFLPPTHQSLLFSATFPLTVKEFMVKHLHKPYEINLMEELTLKGITQYYAFVEERQKLHCLNTLFSKLQINQAIIFCNSTNRVELLAKKITDLGYSCYYSHARMKQQERNKVFHEFRQGKVRTLVCSDLLTRGIDIQAVNVVINFDFPKTAETYLHRIGRSGRFGHLGLAINLINWNDRFNLYKIEQELGTEIAAIPATIDKSLYVAENDET | soluble |
| MGSDKIHHHHHHCQNAAATDTNQSVSAKLQQQALSSSLAYDIVESLTVEVGPRLAGSDKDLVAVEWAEKKLGSLGFDKVYKEAVQVPVWQRGEAKANIVSPYAQPLVITALGGSVGTPEEGISAPIVRFETLDELKQADPSLVAGKIVFIDHITPRFKTGKGYGMTVGGRSRGAIAAAEKGALAIVIRSIGTDHDRMAHTGMMRYQEGVDKIPAAAMSNPDADLVTLMLKRDPNVVLHLEMSPKNLGYATSYNVIAEVTGSSKPDEIVLIGAHLDSWDEGTGAIDDGAGVAIVTAAGHYISQLRVKPARTVRVVLYAAEELGLIGGKSYAKDHQAELAQHYIAAESD | not soluble |
| MAHHHHHHMPHAGNKLVPIGCNMNDAAYPFRGEHRLANCINHGHSGVVKRIPTSIAMRISGSNLVIEEVKTPKGVELECELGVDGGIARPVSLQQASAFMVPSDGHNYNLIAAVKASGNPMKHYCKLTFNGSEGITVLRMRAPEGCSPDAVYIVADGRRLRPTAGWFRIPIHTKECALVANLPLDDAPPPPPPPPPPPPPPPSFSFTATPPLPPAPSGGLAEKTLEATTGAPWTAENVPELETRIHPPLIPNAGAVTLTEPVPAAMPSFVATAPGFSLQLTGENGSSVFGVGVAALPLSHRRAQTVQIVVSDAQGRVLLRQRSHVPSLEPAAVSLAVKDDGKGGLALSANPGSKITVGGVPQADPSATAVLPRVVPQRAVVEQPNADGSVSKATLDVAPTSEPAPVSAAVSKQLPQQPQAPALPEAWVKELSDALQNSNPEEQRHLLQRIYPSSIPGVTIVNFVRDQLTRQPPAISFTVSSNGLEAVQCPGCSVTAAVGNDPARQIPAFGSVALASGKSALLTATSTVRHSAVSACRVQIGVPSAVAFTSPTVSAYPPHAAAGPPMQAGPSADERADSDVVSRLVDCLLRHNLSAPLVARELDSMSTAPFSAQGRRMLSLLTSCLRSATASGAAAAMQAASTQAAAITHAAPEEIFFTCGPGYVDNIYTTQPQYQLFGAVDNQAPQGGAAARPDTCAGYSRG | not soluble |
| GMNNIQAIRKKVETQIDDLQNKTDEIAEFNQAKVLDAFQENKVSDFHFHPSTGYGYDDEGRDTLERVYATVFKTEAALVRPQIISGTHAISTVLFGILRPDDELLYITGQPYDTLEEIVGIRKQGQGSLKDFHIGYSSVPLLENGDVDFPRIAKKMTPKTKMIGIQRSRGYADRPSFTIEKIKEMIVFVKNINPEVIVFVDNCYGEFVEYQEPPEVGADIIAGSLIKNPGGGLAKTGGYIAGKEALVDLCGYRLTTPGIGREAGASLYSLLEMYQGFFLAPHVTAQAIKGARFTAAMLAEFGVEADPVWDAPRTDLIQSVSFHNKEKMVAFAQAIQAASPVNAHVLPIGAYMPGYEDDVIMAAGTFIQGASLELTADGPIREPYQLYVQGGLTYEHIKIAVTRAIQKIV | soluble |
| SLEKHSWYHGPVSRNAAEYLLSSGINGSFLVRESESSPGQRSISLRYEGRVYHYRINTASDGKLYVSSESRFNTLAELVHHHSTVADGLITTLHYPAPKRNKPTVYGVSPNY | soluble |
| MGSDKIHHHHHHMINQAKIEHSGLVDDFIGLYQALNKDNLHLLAEVYDDNICFIDPMHQVNGLNALTQYFAKLYQNIGYIHFEIKEVLQDDTQASLFWQMQYRHPKLNKGEVVRVDGMSQLKFHQRIYFHRDYFDLGQMLYEHLPCMGGLIRLLKDRAAK | not soluble |
| MGSDKIHHHHHHMLTKSSTELVRQQNSALVLAALRRKGSLSHTEIAAQTGLASATISVITAELERSGIIAKTEQHVQGGRGRPRVLFEPRRGCGYVIVVRISSDVVQYSLADYGGILLDRFEDARSHDLRGTAAFGEVLAAALERLLVRSNISKDEVLAISISSKGLVAGGGARLIWSPVFGREQLDFVELLRPAWRARIMLSNESLLVAHALAVREEERERGFHALAAVSLGHSIGLGLARRGKSGELDVSAPDFGHMLHQASAGLCRCGSYGCIEAAAGFYGILRTAFEVPSDTIPAKFVPLSEVDKIAASARQGNRMGGYAFRQAGLALGNGISRMLSLYEPMPIFVTGPGTRYFDLLEKGLEEGLAHSLQVRLQGMPQIRVVPDEQRLVFDGHLNRALGAIDGDIAAAGHP | not soluble |
| MTRIVVLGAGFAGLWAAIGAARKRDEIGAAGRDIEIRVVDRNPYHNIRVRNYEVDLSEVALPLGQLLDPIGVTHGLGEVEAIDPARREISLVTSDGEETLGYDRLVLAVGSEVTRPDIPGLADHAFDVDTYIAALRLEDHLVSLGRSVPSPGRSTVVVVGAGFTGIEVAAEMPDRLARAGITGSRCIILVDPNPTVGATIGAHARPVIETALSALDIETRLGARVASVEAAGVQLSSGEFIPAQTVIWCAGLRASRLAASLPGARDRLGRLLVDPFMRVADLPCVFAAGDVASSVVDGLHPTVMSCQFARPMGRFAGHNVVADLLGLPMLPLRIDWYVTVLDLGSWGALYTEGWDREVRTTGAAAKATKQTINRKRIYPPLNGSKDELFAAAAPTVQTPPPTYGARLEHHHHHH | soluble |
